This is an account of results in paper PMC10325834, “Characteristics of Mycobacterium tuberculosis PtpA interaction and activity on the alpha subunit of human mitochondrial trifunctional protein, a key enzyme of lipid metabolism” (Frontiers in Cellular and Infection Microbiology, 2023).

The Kd is the constant that tells how readily two partners part at equilibrium.

The assay deals with T1, human mitochondrial trifunctional protein (hTFP α/β) immunopurified from macrophages (human (endogenous in macrophages), UniProt P40939-1 37-763; P55084 34-474, phosphotyrosine: 21% of the immunopurified hTFP is phosphorylated on Tyr (sites not identified)).
T1 construct: also called immunopurified hTFP; hTFPα from macrophages; source: endogenous, macrophage extract; immunoprecipitated with anti-TFP monoclonal antibody (ab110302) on beads, eluted with 50 mM citrate pH 2.6
T1 sequence (P40939 37-763, chain 1 of 2): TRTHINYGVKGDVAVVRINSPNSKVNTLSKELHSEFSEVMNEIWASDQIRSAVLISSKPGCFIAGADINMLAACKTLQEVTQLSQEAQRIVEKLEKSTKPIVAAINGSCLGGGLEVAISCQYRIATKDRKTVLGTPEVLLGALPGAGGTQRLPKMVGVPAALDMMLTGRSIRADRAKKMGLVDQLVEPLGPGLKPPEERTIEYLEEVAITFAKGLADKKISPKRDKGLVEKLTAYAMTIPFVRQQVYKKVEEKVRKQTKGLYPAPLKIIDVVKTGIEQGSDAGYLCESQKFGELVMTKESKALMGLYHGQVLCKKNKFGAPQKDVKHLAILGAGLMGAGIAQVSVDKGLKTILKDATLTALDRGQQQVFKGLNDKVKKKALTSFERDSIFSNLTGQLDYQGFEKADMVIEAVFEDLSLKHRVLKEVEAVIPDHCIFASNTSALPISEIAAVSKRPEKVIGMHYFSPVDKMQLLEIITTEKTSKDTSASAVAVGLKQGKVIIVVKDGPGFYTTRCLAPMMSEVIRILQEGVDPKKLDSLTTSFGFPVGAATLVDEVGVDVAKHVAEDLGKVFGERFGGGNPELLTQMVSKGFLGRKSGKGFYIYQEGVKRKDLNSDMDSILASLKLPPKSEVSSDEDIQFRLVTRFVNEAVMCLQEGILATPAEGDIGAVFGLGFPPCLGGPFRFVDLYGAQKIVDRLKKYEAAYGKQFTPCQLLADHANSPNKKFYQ
T1 sequence (P55084 34-474, chain 2 of 2): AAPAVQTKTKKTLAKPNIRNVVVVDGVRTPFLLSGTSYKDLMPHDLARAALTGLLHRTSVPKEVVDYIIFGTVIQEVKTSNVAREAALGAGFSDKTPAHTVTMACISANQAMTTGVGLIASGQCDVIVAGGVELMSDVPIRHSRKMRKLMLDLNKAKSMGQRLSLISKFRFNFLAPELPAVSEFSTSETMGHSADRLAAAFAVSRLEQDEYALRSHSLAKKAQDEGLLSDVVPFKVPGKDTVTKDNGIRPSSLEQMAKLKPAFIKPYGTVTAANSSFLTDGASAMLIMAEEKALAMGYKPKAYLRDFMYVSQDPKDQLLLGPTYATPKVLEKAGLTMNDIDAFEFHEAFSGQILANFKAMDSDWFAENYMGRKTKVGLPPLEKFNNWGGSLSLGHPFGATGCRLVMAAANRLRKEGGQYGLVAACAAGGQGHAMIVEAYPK
As to the kind of experiment: SPR. The settings on record: both partners purified.

B1: Mycobacterium tuberculosis PtpA, recombinant wild type (enzyme)
chain: MSDPLHVTFVCTGNICRSPMAEKMFAQQLRHRGLGDAVRVTSAGTGNWHVGSCADERAAGVLRAHGYPTDHRAAQVGTEHLAADLLVALDRNHARLLRQLGVEAARVRMLRSFDPRSGTHALDVEDPYYGDHSDFEEVFAVIESALPGLHDWVDERLARNGPS
notes: also called rPtpA; PtpA-wt
As to B1, the Kd was determined as 310 nM.
